Data on 46 molecules can be found in patent publication US20090291081A1 (AbbVie / Abbott, published 2009).

Positions count from the first letter of the chain named.

Experiment [1] has as its target T1, human IL-1β (human, UniProt P01584 117-269).
T1 construct: also called hIL-1β; rhIL-1 beta
The experiment is described as follows: yeast surface Fab display, flow cytometry titration. Background: In flow cytometry, cells or beads pass a laser one at a time.

The target of experiment [2] is T2, human IL-1β (human, UniProt P01584 117-269).
T2 construct: also called IL-1beta; hIL-1β
The experiment is described as follows: Table 60 heading; dAbs from selection on antigen.

Another experiment has as its target T3, human IL-1α (human, UniProt P01583 113-271).
T3 construct: also called IL-1alpha; hIL-1α
T3 sequence (looked up): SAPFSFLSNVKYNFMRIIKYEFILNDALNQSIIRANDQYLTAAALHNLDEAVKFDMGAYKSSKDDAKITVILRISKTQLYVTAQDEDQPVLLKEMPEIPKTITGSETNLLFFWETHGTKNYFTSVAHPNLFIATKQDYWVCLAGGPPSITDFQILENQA
The experiment is described as follows: Table 60 heading; dAbs from selection on antigen.

B1: ABT2-108/ABT1-122 Fab on yeast surface (Fab, V domains shown)
VH: EVQLLESGGGLVQPGGSLRLSCAASGFTFAEYTMMWVRQAPGKGLEWVSRIGQDGKNTYYADSVKGRFTISRDNSKNTLYLQMNSLRAEDTAVYYCAKYTGRVGVHHLFDYWGQGTLVTVSS
VL: DIQMTQSPSSLSASVGDRVTITCRASQPIWTELNWYQQKPGKAPKLLIYGSSSLQSGVPSRFSGSGSGTDFTLTISSLQPEDFATYYCQQFAYFPATFGQGTKVEIKR
B1 showed an EC50 with human IL-1β [1] of 5.78 nM. This lies in the single-digit nanomolar range.

B2: ABT2-108-521 (other)
VH: B1 VH with V103I, G104L, V105G
notes: VH dAb
Consider B2, for which the binding result in the experiment with human IL-1β [2] is reported as “binds”.

B3: ABT1-122-750MH (other)
VL: B1 VL with R24S, P28H, L33M, N34S, S52A, L54R, S56K, Y87H, Q89K, A96N
notes: VK dAb
As to B3, the binding result with human IL-1α is listed as “binds”.

B4: ABT1-122-551 (other)
VL: B1 VL with S26K, Q27F, P28N, A43T
notes: VK dAb
Take B4: in the experiment with human IL-1α, the binding result is given as “binds”.

B5: ABT1-122-513 (other)
VL: B1 VL with S52G, L54R, S56R, Q89K
notes: VK dAb
Turning to B5, the binding result with human IL-1α is recorded as “binds”.

B6: ABT1-122-555 (other)
VL: B1 VL with A43T
notes: VK dAb
Turning to B6, the binding result with human IL-1α is reported as “binds”.

B7: ABT1-122-750M (other)
VL: B1 VL with R24S, P28H, L33M, N34S, S52A, L54R, S56K, Q89K, A96N
notes: VK dAb
With B7, in the experiment with human IL-1α, the binding result is “binds”.

B8: ABT1-122-512 (other)
VL: B1 VL with S52A, S53K, L54R, S56R, Q89K
notes: VK dAb
On to B8, for which the binding result in the experiment with human IL-1α is “binds”.

B9: ABT1-122-510 (other)
VL: B1 VL with A25F, Q27Y
notes: VK dAb
As to B9, the binding result with human IL-1α was “binds”.

B10: ABT1-122-750MT (other)
VL: B1 VL with R24S, P28H, L33M, N34S, A43T, S52A, L54R, S56K, Q89K, A96N
notes: VK dAb
Regarding B10, in the experiment with human IL-1α, the binding result was “binds”.

B11: ABT1-122-556 (other)
VL: B1 VL with Y87H
notes: VK dAb
Turning to B11, the binding result in the experiment with human IL-1α is “binds”.

B12: ABT1-122-552 (other)
VL: B1 VL with Q27L, P28G, I29V
notes: VK dAb
As for B12, the binding result with human IL-1α is “binds”.

B13: ABT1-122-508 (other)
VL: B1 VL with S56R
notes: VK dAb
Take B13: the binding result with human IL-1α is “binds”.

B14: ABT1-122-505 (other)
VL: B1 VL with Q89K
notes: VK dAb
On to B14, for which the binding result with human IL-1α was “binds”.

B15: ABT2-108-607 (other)
VH: B1 VH with A61R, D62S, S63D
notes: VH dAb
Turning to B15, the binding result with human IL-1β [2] was “binds”.

B16: ABT2-108-509 (other)
VH: B1 VH with G52T, Q53Y, D54S
notes: VH dAb
As for B16, the binding result in the experiment with human IL-1β [2] is given as “binds”.

B17: ABT2-108-518 (other)
VH: B1 VH with A61R, D62M, S63D
notes: VH dAb
On to B17, for which the binding result with human IL-1β [2] is listed as “binds”.

B18: ABT2-108-602/ABT1-122 Fab on yeast surface (Fab, V domains shown)
VH: B1 VH with Y32E, T33K, M34Y
VL: B1 VL
B18: the midpoint of the response with human IL-1β [1], the EC50, lay at 0.474 nM. In other words, the sub-nanomolar range.

B19: ABT2-108-602 (other)
VH: B1 VH with Y32E, T33K, M34Y
notes: VH dAb
On to B19, for which the binding result with human IL-1β [2] was “binds”.

B20: ABT2-108-504 (other)
VH: B1 VH with E31D, Y32E, T33G
notes: VH dAb
Consider B20, for which the binding result in the experiment with human IL-1β [2] was “binds”.

B21: ABT2-108-606 (other)
VH: B1 VH with A61R, D62S
notes: VH dAb
Take B21: the binding result with human IL-1β [2] is reported as “binds”.

B22: ABT2-108-612 (other)
VH: B1 VH with V103I, G104M, V105G
notes: VH dAb
Turning to B22, the binding result in the experiment with human IL-1β [2] was “binds”.

B23: ABT2-108-620S (other)
VH: B1 VH with A30S, Y32E, T33S, M34W, A61R, D62E, S63D, V103I, G104M, V105G
notes: VH dAb
For B23, the binding result with human IL-1β [2] was “binds”.

B24: ABT2-108-605 (other)
VH: B1 VH with A61R, D62E, S63D
notes: VH dAb
With B24, in the experiment with human IL-1β [2], the binding result was “binds”.

B25: ABT2-108-617 (other)
VH: B1 VH with V103I, G104F, V105T
notes: VH dAb
On to B25, for which the binding result with human IL-1β [2] is recorded as “binds”.

B26: ABT2-108-601 (other)
VH: B1 VH with Y32E, T33S, M34W
notes: VH dAb
Consider B26, for which, in the experiment with human IL-1β [2], the binding result is recorded as “binds”.

B27: ABT2-108-511 (other)
VH: B1 VH with Y59V, Y60I, A61R
notes: VH dAb
Consider B27, for which the binding result with human IL-1β [2] is “binds”.

B28: ABT2-108-527 (other)
VH: B1 VH with G104F, V105K
notes: VH dAb
With B28, in the experiment with human IL-1β [2], the binding result is given as “binds”.

B29: ABT2-108-620x (other)
VH: B1 VH with Y32E, T33S, M34W, A61R, D62E, S63D, V103I, G104M, V105G
notes: VH dAb
Consider B29, for which the binding result with human IL-1β [2] was “binds”.

B30: ABT2-108-524 (other)
VH: B1 VH with G104F, V105N
notes: VH dAb
As to B30, the binding result with human IL-1β [2] is given as “binds”.

B31: ABT2-108-604 (other)
VH: B1 VH with I51V, G52T, Q53Y
notes: VH dAb
In the case of B31, the binding result in the experiment with human IL-1β [2] was “binds”.

B32: ABT2-108-534x (other)
VH: B1 VH with E31D, Y32E, T33G, G52T, Q53Y, D54S, V103I, G104F, V105S
notes: VH dAb
Turning to B32, the binding result in the experiment with human IL-1β [2] is “binds”.

B33: ABT2-108-603 (other)
VH: B1 VH with G52T, Q53D, D54A
notes: VH dAb
With B33, the binding result in the experiment with human IL-1β [2] is “binds”.

B34: ABT2-108-601/ABT1-122 Fab on yeast surface (Fab, V domains shown)
VH: B1 VH with Y32E, T33S, M34W
VL: B1 VL
In turn, B34 returned an EC50 with human IL-1β [1] of 0.522 nM.

B35: ABT1-207 (other)
VH: EVQLLESGGGLIQPGGSLRLSCAASGFTFGRYYMSWVRQAPGKGLEWVSSIDYLGTNTYYADSVKGRFTISRDNSKNTLYLQMNSLRAEDTAVYYCAKLTRIRPPNFDYWGQGTLVTVSS
notes: VH dAb
On to B35, for which the binding result with human IL-1α is “binds”.

B36: ABT2-65-166S (other)
VH: EVQLLESGGGLVQPGGSLRLSCAASGFTFSDYQMGWVRQAPGKGLEWVSSISAMGGRTYYADSVKGRFTISRDNSKNTLYLQMNSLRAEDTAVYYCAQNLVRLGRSRWMFDYWGQGTLVTVSS
notes: VH dAb
As to B36, the binding result in the experiment with human IL-1β [2] was “binds”.

B37: ABT2-65-201 (other)
VH: B36 VH with A23V, S30E, G56R
notes: VH dAb
On to B37, for which the binding result with human IL-1β [2] was “binds”.

B38: ABT2-65-203 (other)
VH: B36 VH with A23V, S30E, G56F
notes: VH dAb
B38: the binding result with human IL-1β [2] is given as “binds”.

B39: ABT2-65-166SK (other)
VH: B36 VH with Q98K
notes: VH dAb
With B39, the binding result in the experiment with human IL-1β [2] was “binds”.

B40: ABT2-65-B2 (other)
VH: B36 VH with A23V, S30E, G56R, N74D
notes: VH dAb
Consider B40, for which, in the experiment with human IL-1β [2], the binding result was “binds”.

B41: ABT2-65-B3 (other)
VH: B36 VH with A23V, S30E, G56N, T58A, N74D
notes: VH dAb
B41: in the experiment with human IL-1β [2], the binding result is recorded as “binds”.

B42: ABT1-122-750xH (other)
VL: DIQMTQSPSSLSASVGDRVAITCSASQHIWTEISWYQQKPGKAPKLLIYGSASRQKGVPSRFSGSGSGTDFTLTISSLQPEDFATYHCKQFAYFPNTFGQGTKVEIKR
notes: VK dAb
B42: in the experiment with human IL-1α, the binding result is on record as “binds”.

B43: ABT1-95-A4 (other)
VL: DIQMTQSPSSLSASVGDRVTITCRASRPGVRNLRWYQQKPGKAPKLLIYSRSFLEPGVPSRFSGSGSGTDFTLTISSLQPEDFATYHCLQGYRWPPTFGQGTKVEIKR
notes: VK dAb
For the molecule B43, the binding result with human IL-1α was “binds”.

B44: ABT1-95-A1 (other)
VL: B43 VL with S50H, R51V, F53D, L89R, R93V, P96V, T97P, G99D
notes: VK dAb
As to B44, the binding result with human IL-1α is recorded as “binds”.

B45: ABT1-222 (other)
VL: DIQMTQSPSSLSASVGDRVTITCRASQPITRNLRWYQQKPGKAPKLLIYHSSVLQSGVPSRFSGSGSGTDFTLTISSLQPEDFATYYCQQGYRWPVTFGQGTKVEIKR
notes: VK dAb
Consider B45, for which, in the experiment with human IL-1α, the binding result was “binds”.

B46: ABT1-122-553 (other)
VL: B1 VL with N34K
notes: VK dAb
As for B46, in the experiment with human IL-1α, the binding result is “binds”.

Broadly, the EC50 is the concentration giving half of the maximal effect. High values mean a less potent agent, low ones a more potent agent.
